Measured values reported in patent US8586570B2, “Sox-based kinase sensor” (Massachusetts Institute of Technology, priority 2006, dated 2013).

Legend:
Test in all cases: Cross-reactivity of PKCα-S10 with PKC isozymes
Format in all cases: biochemical
Details in all cases: peptide 1 μM, isozyme 2 ng
PKCε = molecular target: T1, PKCε (Homo sapiens, UniProt Q02156)
T1 sequence (Q02156 1-737): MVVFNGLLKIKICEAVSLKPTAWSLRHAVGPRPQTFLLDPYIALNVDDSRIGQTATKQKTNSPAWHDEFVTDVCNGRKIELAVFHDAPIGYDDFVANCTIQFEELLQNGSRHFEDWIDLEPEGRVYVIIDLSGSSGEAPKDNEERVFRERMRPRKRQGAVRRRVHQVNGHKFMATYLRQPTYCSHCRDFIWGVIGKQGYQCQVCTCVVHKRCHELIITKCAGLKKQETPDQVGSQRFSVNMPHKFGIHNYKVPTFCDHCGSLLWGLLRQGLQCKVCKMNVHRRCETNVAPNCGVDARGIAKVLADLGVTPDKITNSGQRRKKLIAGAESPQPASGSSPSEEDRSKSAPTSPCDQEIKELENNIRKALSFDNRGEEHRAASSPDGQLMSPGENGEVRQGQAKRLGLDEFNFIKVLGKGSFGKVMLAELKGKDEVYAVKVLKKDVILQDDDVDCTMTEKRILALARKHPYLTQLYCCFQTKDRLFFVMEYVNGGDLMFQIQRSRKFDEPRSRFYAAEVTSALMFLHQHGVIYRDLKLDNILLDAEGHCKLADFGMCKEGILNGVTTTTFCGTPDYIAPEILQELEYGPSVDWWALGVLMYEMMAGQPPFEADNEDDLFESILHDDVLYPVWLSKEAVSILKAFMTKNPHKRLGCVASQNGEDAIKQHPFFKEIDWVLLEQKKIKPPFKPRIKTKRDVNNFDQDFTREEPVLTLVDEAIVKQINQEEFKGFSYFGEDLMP
Description: (§1) With the kinetic parameters at hand it is possible to test the cross-reactivity of PKCα-S10 with PKC isozymes. In 12 separate reactions PKCα-S10 (1 μM) is subjected to phosphorylation with PKCα, PKCβI, PKCβII, PKCγ, PKCδ, PKCε, PKCζ, PKCη, PKCθ, PKCι, PKCμ and PKCν (2 ng).

PKCθ = PKCθ (Homo sapiens, UniProt Q04759)
Description: as §1

PKCη = PKCη (Homo sapiens, UniProt P24723)
Description: as §1

Sequence of PKCθ (Q04759 whole entry): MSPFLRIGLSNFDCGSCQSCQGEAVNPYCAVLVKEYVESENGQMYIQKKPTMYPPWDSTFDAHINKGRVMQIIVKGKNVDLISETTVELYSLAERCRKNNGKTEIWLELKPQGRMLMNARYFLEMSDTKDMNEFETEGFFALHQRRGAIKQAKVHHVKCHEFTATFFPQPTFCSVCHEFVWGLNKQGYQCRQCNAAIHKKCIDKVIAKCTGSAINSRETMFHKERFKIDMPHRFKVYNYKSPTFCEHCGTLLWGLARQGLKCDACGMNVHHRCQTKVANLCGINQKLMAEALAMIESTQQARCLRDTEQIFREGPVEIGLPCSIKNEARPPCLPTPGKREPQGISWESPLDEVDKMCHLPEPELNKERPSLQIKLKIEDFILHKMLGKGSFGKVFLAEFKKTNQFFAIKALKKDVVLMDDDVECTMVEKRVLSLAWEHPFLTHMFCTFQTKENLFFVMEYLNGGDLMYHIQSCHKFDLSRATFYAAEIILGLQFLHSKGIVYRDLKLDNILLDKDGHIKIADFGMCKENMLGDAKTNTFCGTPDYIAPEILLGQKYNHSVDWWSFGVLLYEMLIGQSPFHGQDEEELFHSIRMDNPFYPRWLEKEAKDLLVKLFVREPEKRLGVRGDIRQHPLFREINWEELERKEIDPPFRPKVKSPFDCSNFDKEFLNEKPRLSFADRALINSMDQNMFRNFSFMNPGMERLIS
Sequence of PKCη (P24723 whole entry): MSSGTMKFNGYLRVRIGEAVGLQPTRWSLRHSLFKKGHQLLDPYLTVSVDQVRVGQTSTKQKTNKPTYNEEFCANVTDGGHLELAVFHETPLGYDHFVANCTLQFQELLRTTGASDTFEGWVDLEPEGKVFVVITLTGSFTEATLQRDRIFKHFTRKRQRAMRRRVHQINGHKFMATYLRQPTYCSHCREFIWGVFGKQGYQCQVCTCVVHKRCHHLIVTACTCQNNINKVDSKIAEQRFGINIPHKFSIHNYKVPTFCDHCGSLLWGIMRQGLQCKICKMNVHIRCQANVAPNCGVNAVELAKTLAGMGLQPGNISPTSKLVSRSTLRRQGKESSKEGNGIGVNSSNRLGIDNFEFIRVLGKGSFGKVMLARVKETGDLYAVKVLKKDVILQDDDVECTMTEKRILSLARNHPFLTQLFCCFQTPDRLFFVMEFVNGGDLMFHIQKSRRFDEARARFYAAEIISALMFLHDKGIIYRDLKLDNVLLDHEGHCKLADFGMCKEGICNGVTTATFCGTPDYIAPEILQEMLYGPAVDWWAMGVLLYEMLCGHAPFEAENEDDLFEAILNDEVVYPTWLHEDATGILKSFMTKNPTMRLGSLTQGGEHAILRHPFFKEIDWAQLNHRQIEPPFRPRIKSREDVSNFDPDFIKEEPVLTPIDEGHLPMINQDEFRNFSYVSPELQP

activity of isozyme on peptide (PKCε): very little activity
activity of isozyme on peptide compared with PKCα (PKCθ): slightly more active than PKCα
activity of isozyme on peptide (PKCη): very little activity
Substance: Ac-RRR-C(Sox)-ASFRRKA-CONH2 [PKCα-S10(P10), Sox chemosensor with extended recognition domain for PKCα]
